Laboratory results reported in patent publication US20170283834A1, “Processes for Producing A Fermentation Product Using A Fermenting Organism” (Novozymes A/S, priority 2014, published 2017).

Experiments:
azo-casein = test: Remaining activity assay of protease variants (azo-casein); format: biochemical; conditions: pH 4.5, 4° C. as reference; for Remaining activity 84° C.: 10 min at 84° C.; for Remaining activity 80° C.: 10 min at 80° C.
Description: Yeast clones on SC-glucose were inoculated to a well of a 96-well micro titre plate and cultivated at 28° C. for 3 days. Protease activity was measured at 65° C. using azo-casein (Megazyme) after incubating the culture supernatant in 20 mM sodium acetate buffer, pH 4.5, for 10 min at a certain temperature (80° C. or 84° C. with 4° C. as a reference) to determine the remaining activity. The clones with higher remaining activity than the parental variant were selected and the sequence was determined.
20 microL of samples were mixed with 150 microL of substrate solution (4 ml of 12.5% azo-casein in ethanol in 96 ml of 20 mM sodium acetate, pH 4.5, containing 0.01% triton-100 and 0.25 mM ZnSO4) and incubated for 4 hours or longer.
After adding 20 microL/well of 100% trichloroacetic acid (TCA) solution, the plate was centrifuge and 100 microL of supernatants were pipette out to measure A440.

zein = test: Relative activity assay of protease variants (zein micro titer plate); format: biochemical; conditions: Table 4
Summary of the method: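 Yeast culture supernatants (3 days, 28 °C) incubated over 4 h or overnight on zein-agar plates (pH 4.5 acetate, 0.25 mM ZnSO4) at two temperatures. Zein turbidity read at A630; higher/lower-temperature activity ratio gives relative thermoactivity.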

Molecule | Remaining activity 84° C. (azo-casein) [%] | Relative activity 75° C./65° C. (zein) [%] | Remaining activity 80° C. (azo-casein) [%]
JTP092: protease variant of SEQ ID NO: 3: ΔS5/N26R/D79L/S87P/A112P/D142L (protein, listed as Thermoascus aurantiacus) MRLVASLTALVALSVPVFPAAVNVKRASSYLEITLSQVSNTLIKAVVQNTGSDELSFVHLNFFKDPAPVKKVSVYRDGSEVQFEGILSRYKSTGLSRDAFTYLAPGESVEDVFDIASTYDLTSGGPVTIRTEGVVPYATANSTDIAGYISYSSNVLTIDVDGAAAATVSKAITPLDRRTRISCSGSRQSALTTALRNAASLARAAADAAQSGSASKFSEYFKTTSSSTRQTVAARLRAVAREASSSSSGATTYYCLDPYGYCSPNVLAYTLPSYNIIANCDIFYTYLPPLTSTCHAQDQATTALHEFTHAPGVYSPGTLDLAYGYQAAMGLSSSQAVMNADTYALYANAIYLGC | 60 |  | 
JTP091: protease variant of SEQ ID NO: 3: D79L/S87P/A112P/T124V/D142L (protein, listed as Thermoascus aurantiacus) MRLVASLTALVALSVPVFPAAVNVKRASSYLEITLSQVSNTLIKAVVQNTGSDELSFVHLNFFKDPAPVKKVSVYRDGSEVQFEGILSRYKSTGLSRDAFTYLAPGESVEDVFDIASTYDLTSGGPVTIRTEGVVPYATANSTDIAGYISYSSNVLTIDVDGAAAATVSKAITPLDRRTRISSCSGSRQSALTTALRNAASLANAAADAAQSGSASKFSEYFKTTSSSTRQTVAARLRAVAREASSSSSGATTYYCLDPYGYCSPNVLAYTLPSYNIIANCDIFYTYLPPLTSTCHAQDQAVTALHEFTHAPGVYSPGTLDLAYGYQAAMGLSSSQAVMNADTYALYANAIYLGC |  | 154 | 43
JTP101: protease variant of SEQ ID NO: 3: A27K/D79L/S87P/A112P/T124V/D142L (protein, listed as Thermoascus aurantiacus) MRLVASLTALVALSVPVFPAAVNVKRASSYLEITLSQVSNTLIKAVVQNTGSDELSFVHLNFFKDPAPVKKVSVYRDGSEVQFEGILSRYKSTGLSRDAFTYLAPGESVEDVFDIASTYDLTSGGPVTIRTEGVVPYATANSTDIAGYISYSSNVLTIDVDGAAAATVSKAITPLDRRTRISSCSGSRQSALTTALRNAASLANKAADAAQSGSASKFSEYFKTTSSSTRQTVAARLRAVAREASSSSSGATTYYCLDPYGYCSPNVLAYTLPSYNIIANCDIFYTYLPPLTSTCHAQDQAVTALHEFTHAPGVYSPGTLDLAYGYQAAMGLSSSQAVMNADTYALYANAIYLGC |  |  | 81
JTP116: protease variant of SEQ ID NO: 3: D79L/Y82F/S87P/A112P/T124V/D142L (protein, listed as Thermoascus aurantiacus) MRLVASLTALVALSVPVFPAAVNVKRASSYLEITLSQVSNTLIKAVVQNTGSDELSFVHLNFFKDPAPVKKVSVYRDGSEVQFEGILSRYKSTGLSRDAFTYLAPGESVEDVFDIASTYDLTSGGPVTIRTEGVVPYATANSTDIAGYISYSSNVLTIDVDGAAAATVSKAITPLDRRTRISSCSGSRQSALTTALRNAASLANAAADAAQSGSASKFSEYFKTTSSSTRQTVAARLRAVAREASSSSSGATTYYCLDPFGYCSPNVLAYTLPSYNIIANCDIFYTYLPPLTSTCHAQDQAVTALHEFTHAPGVYSPGTLDLAYGYQAAMGLSSSQAVMNADTYALYANAIYLGC |  |  | 59
JTP127: protease variant of SEQ ID NO: 3: D79L/S87P/A112P/T124V/A126V/D142L (protein, listed as Thermoascus aurantiacus) MRLVASLTALVALSVPVFPAAVNVKRASSYLEITLSQVSNTLIKAVVQNTGSDELSFVHLNFFKDPAPVKKVSVYRDGSEVQFEGILSRYKSTGLSRDAFTYLAPGESVEDVFDIASTYDLTSGGPVTIRTEGVVPYATANSTDIAGYISYSSNVLTIDVDGAAAATVSKAITPLDRRTRISSCSGSRQSALTTALRNAASLANAAADAAQSGSASKFSEYFKTTSSSTRQTVAARLRAVAREASSSSSGATTYYCLDPYGYCSPNVLAYTLPSYNIIANCDIFYTYLPPLTSTCHAQDQAVTVLHEFTHAPGVYSPGTLDLAYGYQAAMGLSSSQAVMNADTYALYANAIYLGC |  |  | 53
JTP117: protease variant of SEQ ID NO: 3: D79L/Y82F/S87P/A112P/T124V/D142L (protein, listed as Thermoascus aurantiacus) MRLVASLTALVALSVPVFPAAVNVKRASSYLEITLSQVSNTLIKAVVQNTGSDELSFVHLNFFKDPAPVKKVSVYRDGSEVQFEGILSRYKSTGLSRDAFTYLAPGESVEDVFDIASTYDLTSGGPVTIRTEGVVPYATANSTDIAGYISYSSNVLTIDVDGAAAATVSKAITPLDRRTRISSCSGSRQSALTTALRNAASLANAAADAAQSGSASKFSEYFKTTSSSTRQTVAARLRAVAREASSSSSGATTYYCLDPFGYCSPNVLAYTLPSYNIIANCDIFYTYLPPLTSTCHAQDQAVTALHEFTHAPGVYSPGTLDLAYGYQAAMGLSSSQAVMNADTYALYANAIYLGC |  |  | 94
JTP095: protease variant of SEQ ID NO: 3: N26R/T46R/D79L/S87P/A112P/D142L (protein, listed as Thermoascus aurantiacus) MRLVASLTALVALSVPVFPAAVNVKRASSYLEITLSQVSNTLIKAVVQNTGSDELSFVHLNFFKDPAPVKKVSVYRDGSEVQFEGILSRYKSTGLSRDAFTYLAPGESVEDVFDIASTYDLTSGGPVTIRTEGVVPYATANSTDIAGYISYSSNVLTIDVDGAAAATVSKAITPLDRRTRISSCSGSRQSALTTALRNAASLARAAADAAQSGSASKFSEYFKRTSSSTRQTVAARLRAVAREASSSSSGATTYYCLDPYGYCSPNVLAYTLPSYNIIANCDIFYTYLPPLTSTCHAQDQATTALHEFTHAPGVYSPGTLDLAYGYQAAMGLSSSQAVMNADTYALYANAIYLGC | 62 |  | 
JTP099: protease variant of SEQ ID NO: 3: D79L/P81R/S87P/A112P/D142L (protein, listed as Thermoascus aurantiacus) MRLVASLTALVALSVPVFPAAVNVKRASSYLEITLSQVSNTLIKAVVQNTGSDELSFVHLNFFKDPAPVKKVSVYRDGSEVQFEGILSRYKSTGLSRDAFTYLAPGESVEDVFDIASTYDLTSGGPVTIRTEGVVPYATANSTDIAGYISYSSNVLTIDVDGAAAATVSKAITPLDRRTRISSCSGSRQSALTTALRNAASLANAAADAAQSGSASKFSEYFKTTSSSTRQTVAARLRAVAREASSSSSGATTYYCLDRYGYCSPNVLAYTLPSYNIIANCDIFYTYLPPLTSTCHAQDQATTALHEFTHAPGVYSPGTLDLAYGYQAAMGLSSSQAVMNADTYALYANAIYLGC | 80 |  | 
JTP096: protease variant of SEQ ID NO: 3: T46R/D79L/S87P/T116V/D142L (protein, listed as Thermoascus aurantiacus) MRLVASLTALVALSVPVFPAAVNVKRASSYLEITLSQVSNTLIKAVVQNTGSDELSFVHLNFFKDPAPVKKVSVYRDGSEVQFEGILSRYKSTGLSRDAFTYLAPGESVEDVFDIASTYDLTSGGPVTIRTEGVVPYATANSTDIAGYISYSSNVLTIDVDGAAAATVSKAITPLDRRTRISSCSGSRQSALTTALRNAASLANAAADAAQSGSASKFSEYFKRTSSSTRQTVAARLRAVAREASSSSSGATTYYCLDPYGYCSPNVLAYTLPSYNIIANCDIFYTYLPALTSVCHAQDQATTALHEFTHAPGVYSPGTLDLAYGYQAAMGLSSSQAVMNADTYALYANAIYLGC | 67 |  | 
